The results in this text go back to patent publication US20150166643A1 (Alexion, published 2015).

The target in assay [1] is T1, human factor B (purified, Complement Technology A135) (human, UniProt P00751 26-764).
T1 construct: also called fB; human complement factor B
Kind of assay: BLI (Octet), biotinylated factor B on streptavidin biosensor, Fab at 50 nM. The method, then: (§1) Binding kinetics of TA106 and TA106 S33A Fab (CLS016) to Factor B were analyzed using a FortéBio® Octet® biosensor (FortéBio, Inc.) in a similar protocol as described previously. In one exemplary experiment, Factor B (Complement Technology) was biotinylated at a 1:10 ratio and coupled to a streptavidin biosensor at a concentration of 5 μg/mL for a loading time of 600 seconds. Biosensors were briefly dipped in 1×KB as a wash for 30 seconds. Associations with a titration series of Fab with a concentration range from 100 to 3 nM (diluted in 1×KB) were carried out for 600 seconds. Fabs were dissociated from the biosensor by immersing the biosensor in 1×KB during the 600 second dissociation phase. As depicted in FIGS. 19 and 20, both TA106 Fab and TA106-derivative S33A Fab (CLS016) bound to Factor B at various concentrations, resulting in nearly identical association and dissociation profiles. Kinetic assessments using partial local fit parameters yielded identical values for KD/kₐ/Kd at each concentration tested.
On the technique in general: Biolayer interferometry detects binding as a change in optical thickness at a sensor tip.

Assay [2] concerns the target T1, human factor B (purified, Complement …). The experiment in a line: SPR (Biacore), factor B coupled to the chip, free TA106 Fab 0.19-25 nM flowed; Chi2 1.58. The text has this: (§2) Binding kinetics of TA106 Fab and variant S33A Fab (CLS016) were further characterized using Surface Plasmon Resonance (SPR) technology. In one exemplary experiment, both Fabs were captured on chips of a Biacore 3000 analyzer and samples of human factor B of different concentrations were flowed as the antigen over the surface to model soluble human factor B binding, using protocols recommended by the manufacturer and described previously in the instant disclosure. […] In another exemplary experiment, the affinities of both Fabs were also measured by reversing the orientation of the previous experiment. Specifically, human factor B was directly coupled to one flow cell of a CM5 chip. The second flow cell was used as a blank reference with no coupled ligand. CLS016 or TA106 Fab was then flowed on both flow cells. Concentrations between 0.19 to 25 nM were run with duplicates. The surface was regenerated between each cycle.
(In general: In SPR one partner is held on a chip, and binding of the other changes the refractive index at the surface.)

The target is the same in assay [3]. Kind of assay: SPR (Biacore 3000), Fab captured by human Fab binder on CM5 chip, soluble human factor B 3.1-200 nM; Fab captured on chip, soluble factor B. The text has this: Binding kinetics of mAbs were further characterized using Biacore's Surface Plasmon Resonance (SPR) technology (GE Healthcare, Piscataway, N.J.). For a detailed description of SPR and its applications in affinity measurement, please see Karlsson and Larsson, Antibody Engineering: Methods and Protocols, Methods in Molecular Biology (2003), 248: 389-415. In one exemplary experiment, TA106 Fab and derivative mAbs were captured on chips of a Biacore 3000 analyzer and samples of human factor B of different concentrations were flowed as the antigen over the surface to model soluble human factor B binding, using protocols recommended by the manufacturer (e.g., in the product brochure #BR-9003-31). All these referenced publications are hereby incorporated by reference in their entirety. […] Fab TA106 (Xoma, Lot#TTA1007, 20 mg/mL) was then flowed over one flow cell, followed by injections of human factor B on both flow cells. Concentrations (factor B) between 3.1-200 nM were run. The surface was regenerated between each cycle. […] The affinities of mAbs, i.e., CLS011, CLS012, and CLS013, were determined using a similar capture approach. In one exemplary experiment, human anti-Fc antibody was amine coupled to two flow cells of a CM5 chip. Each of the TA106-originated mAbs was then flowed over one flow cell, followed by injecting human factor B (3.1-200 nM) on both flow cells. […]

Assay [4] has the same target. The experiment in a line: SPR, factor B on surface, Fab flowed (summary table).
Description: as §2

Assay [5] has the same target. The experiment in a line: SPR (Biacore), TA106 Fab captured on anti-Fab surface, soluble factor B 3.1-100 nM flowed; Chi2 0.206.
Description: as §2

Assay [6] shares this target. Kind of assay: SPR (Biacore 3000), Fab captured on chip, soluble human factor B 3.1-100 nM.
Description: as §2

Assay [7] shares this target. The experiment in a line: BLI (Octet), biotinylated factor B on streptavidin biosensor, Fab at 3.13 nM. The method, then: as §1
Assay [8] has the same target. The experiment in a line: SPR (Biacore), factor B bound directly to the chip, free TA106 Fab flowed; Chi2 0.901. The text has this:
The difference in the two Biacore data sets could be explained as either that the conformation of factor B changes when binding to the surface or that not all commercial factor B is active. This later Biacore experiment (with a fixed concentration of factor B bound to the chip) removed the factor B concentration from the calculation.

The target is the same in assay [9]. Kind of assay: BLI (Octet), binding to factor B (summary table). Here is the method: as §1
Assay [10] shares this target. The experiment in a line: BLI (Octet), biotinylated factor B on streptavidin biosensor, Fab at 25 nM. The method, then: as §1

T1 sequence (P00751 26-764): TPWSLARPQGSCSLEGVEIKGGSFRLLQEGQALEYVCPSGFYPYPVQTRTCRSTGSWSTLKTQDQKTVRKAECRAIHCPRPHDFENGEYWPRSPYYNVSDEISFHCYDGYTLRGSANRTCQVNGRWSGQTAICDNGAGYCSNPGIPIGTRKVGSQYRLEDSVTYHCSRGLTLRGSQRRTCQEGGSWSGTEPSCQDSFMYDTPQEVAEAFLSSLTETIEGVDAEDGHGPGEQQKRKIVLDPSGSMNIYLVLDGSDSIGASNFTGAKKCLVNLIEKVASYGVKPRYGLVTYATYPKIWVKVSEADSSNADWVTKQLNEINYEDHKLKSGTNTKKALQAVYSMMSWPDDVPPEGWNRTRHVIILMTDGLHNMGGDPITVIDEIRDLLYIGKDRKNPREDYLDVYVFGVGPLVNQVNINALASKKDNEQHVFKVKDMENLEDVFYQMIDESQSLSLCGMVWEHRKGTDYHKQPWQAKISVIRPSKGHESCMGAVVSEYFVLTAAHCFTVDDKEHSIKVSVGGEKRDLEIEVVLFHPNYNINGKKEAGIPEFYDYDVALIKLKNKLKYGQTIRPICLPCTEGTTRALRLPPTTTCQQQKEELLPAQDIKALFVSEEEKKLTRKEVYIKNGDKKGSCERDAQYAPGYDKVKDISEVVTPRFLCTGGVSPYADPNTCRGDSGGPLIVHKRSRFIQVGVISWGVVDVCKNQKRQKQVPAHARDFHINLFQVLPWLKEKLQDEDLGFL

B1: TA106 Fab (humaneered anti-factor B Fab, expressed in E. coli) (Fab, V domains shown)
VH: QVQLVQSGAEVKKPGASVKVSCKASGYSFTDYYMTWVRQAPGQGLEWMGWINPNSGGTKYAQKFQGRVTMTRDTSISTAYMELSRLRSDDTAVYYCARGYYANSAWFAYWGQGTLVTVSS
VL: DIVMTQSPDSLAVSLGERATINCKSSQSLLNSSTSKNYLAWYQQKPGQPPKLLIYWASTRESGVPDRFSGSGSGTDFTLTISSLQAEDVAVYYCKQVYNLPWTFGQGTKLEIKR
notes: Fab made in E. coli by Xoma, not glycosylated; also called Fab TA106; TA106 wild type Fab
Take B1: the dissociation constant Kd (commonly the concentration at which binding is half-saturated) in assay [1] is 22.7 nM; in [3] it was roughly 24.9 nM; in assay [4] it was 1.5 nM; in assay [6] it was roughly 30.6 nM; in assay [7], 32.3 nM; in assay [9], 20 to 30 nM. In addition, in assay [10], binding was put at a Kd of 22.4 nM. Also, the koff (usually the first-order rate constant of dissociation) in assay [1] was 0.0039 s⁻¹; in [2], 0.00333 s⁻¹; in [5] it was 0.00338 s⁻¹; in assay [7], 0.00239 s⁻¹; in assay [8] it was 0.00305 s⁻¹; in assay [10], 0.00352 s⁻¹. The kon – broadly, a measure of how fast the partners come together – in [1] came out at 172000 M⁻¹ s⁻¹; in assay [2], 2.84e+06 M⁻¹ s⁻¹; in [5] it was 136000 M⁻¹ s⁻¹; in [7], 74000 M⁻¹ s⁻¹; in assay [8] it was 2.2e+06 M⁻¹ s⁻¹; in [10], 157000 M⁻¹ s⁻¹.
